# Measurements taken from PMC3084784 (PLoS ONE, 2011).
# Experiments:
# [1] = target: HLA-A*0201 (heavy chain, β2m and peptide …) (human |  | human SARS-CoV); assay: SPR; conditions: both partners purified
# [2] = target: T1, HLA-G1 (heavy chain, β2m and peptide …) (human | , UniProt P17693-1 25-300; P61769 21-119); assay: SPR; BIAcore 3000; HLA-A*0201 (700 RU) or HLA-G1 (300 RU) immobilised by amine coupling on CM5 at pH 5.0, BSA as control surface; LILR injected; 25°C; 10 mM HEPES pH 7.4, 150 mM NaCl, 3 mM EDTA, 0.005% Tween-20; Kd by Scatchard analysis or nonlinear fit of a Langmuir isotherm; conditions: both partners purified
# T1 construct: HLA-G1 heavy chain, recombinant; β2-microglobulin (β2m), from inclusion bodies; also called non-classical HLAI; copies: + +
Binder,Kd [1],Kd [2]
"LILRA3 D1D2 (domain 1 and domain 2, residues 1-197) (domain or fragment) GPLPKPTLWAEPGSVITQGSPVTLRCQGSLETQEYHLYREKKTALWITRIPQELVKKGQFPILSITWEHAGRYCCIYGSHTVGLSESSDPLELVVTGAYSKPTLSALPSPVVTSGGNVTIQCDSQVAFDGFILCKEGEDEHPQCLNSHSHARGSSRAIFSVGPVSPSRRWSYRCYGYDSRAPYVWSLPSDLLGLLVP",28.5 µM,–
"LILRB2 D1D2 (domain or fragment, human, LILRB2 (ILT4), domains 1 and 2 (D1D2); also called LILRB2 D1D2 monomer; ILT4 D1D2) GTIPKPTLWAEPDSVITQGSPVTLSCQGSLEAQEYRLYREKKSASWITRIRPELVKNGQFHIPSITWEHTGRYGCQYYSRARWSELSDPLVLVMTGAYPKPTLSAQPSPVVTSGGRVTLQCESQVAFGGFILCKEGEDEHPQCLNSQPHARGSSRAIFSVGPVSPNRRWSHRCYGYDLNSPYVWSSPSDLLELLVPG",9.74 µM,5.62 µM
"LILRA3 D1 (domain 1, residues 1-97) (domain or fragment) GPLPKPTLWAEPGSVITQGSPVTLRCQGSLETQEYHLYREKKTALWITRIPQELVKKGQFPILSITWEHAGRYCCIYGSHTVGLSESSDPLELVVTG",40.1 µM,–
